Measured values published in publication PMC4105619, “Identification and Characterisation of Aedes aegypti Aldehyde Dehydrogenases Involved in Pyrethroid Metabolism” (PLoS ONE, 2014).

B1: ALDH14080 (Aedes aegypti) (protein)
chain: MANPNQEIKYTKLFINNQFVDSQSGKTFPTLNPATGQKIVDVAEGDKADVDIAVQAAKTAFARSSAWRQMDASARGKLLHKLADLMERDINVLANLESLDNGKAFGDSVFDMNCAIDTFRYYAGWADKIHGSTVPSDGPVMTYIRKEPVGVVGQIIPWNYPVLMLTWKWAPALATGCTLVLKPAEQTPLSALYMAALSKEAGFPDGVINVVNGYGPTVGAAIVNHAEIRKVAFTGSVETGRLITEGSSKSNLKRVSLELGGKSPLVVFDDFDVDEAVEIAHNAIFANHGQNCCAGSRTFVQEGVYDKFVAKAAEMAKARKVGDAFAEGTQQGPQVDEEQLNKILGFFESASKEGAKLQTGGKRHGNVGYFVEPTVYSDVTDEMRIAREEIFGPVQSILKFKTLDEVIERANRTEYGLAAGVLTNNLNNALVFSNAVEAGSVWVNCYDYVMPTTPFGGFKQSGHGRELGYDGIELYTETKTVTIKLPSKV
notes: full length, N-terminal His6 fusion from pET100-D/TOPO, E. coli BL21 Star (DE3), HisTrap Ni purified, about 65 kDa on SDS-PAGE; cDNA from PMD-R strain
B2: ALDH9948 (Aedes aegypti) (protein)
chain: MANANPEIKYTQLFINNEFVDAVSGKVFPTVNPSTGKKIVDIAEGDKADVDLAVQAAKAAFQRSSKWRQMDASARGKLIYKLADLMERDMHQIASLESLDNGKPYMSAVYDVYGSMNCLRYYAGWTDKVCGETVPSDGPHLTYTRKEPFGVVGQIIPWNYPLLMLAWKWGPALAAGCTIVMKPAEQTPLTALYMCSLVKEAGFPPGVVNMVPGYGPTAGNAITMHPDIRKVAFTGSVEVGKIVMAGAASNLKKVSLELGGKSPLVICDDVDVNEAAQIAYTGVFENMGQCCIAATRTFVQEGIYDAFVQKATELAKGRKVGNPFSQGIQHGPQIDDIQFKKILGFIETGKKEGAKLETGGVQVGEEGYFIEPTVFSNVTDEMTIAKEEIFGPVQSIIKFKTLDEAIERANATSFGLAAGIVTKNLNNALTFSNAVEAGSVWVNTYLAVSNQAPFGGYKQSGVGREMGKEGIEEYLETKTVSIKLPSKV
notes: as for B1

Experiments:
purified protein [1] = substrate: NC(=O)c1ccc[n+]([C@@H]2O[C@H](COP(=O)(O)OP(=O)(O)OC[C@H]3O[C@@H](n4cnc5c(N)ncnc54)[C@H](O)[C@@H]3O)[C@@H](O)[C@H]2O)c1; assay: purified protein; format: biochemical, Aedes aegypti; conditions: saturating PBald, 33 mM phosphate pH 8.2, 1 mM EDTA, 0.1 mM pyrazole, 37°C, varied: cofactor
purified protein [2] = substrate: O=Cc1cccc(Oc2ccccc2)c1; assay: purified protein; format: biochemical, Aedes aegypti; conditions: saturating NAD+, 33 mM phosphate pH 8.2, 1 mM EDTA, 0.1 mM pyrazole, 37°C

Row | Protein | Km (purified protein [1]) [nM] | Km (purified protein [2]) [nM]
1 | B1 | 193.8 ± 34.5 | 
2 | B2 | 139.1 ± 27.9 | 153.8 ± 30.8
